Data taken from publication PMC6133441.

Target: human recombinant galectin-9, medium isoform (gal-9M) (human) (UniProt O00182)
Assay: SPR; Biacore T200; gal-9M covalently bound to a CM5 chip (NHS/EDC, 10 μg/mL, pH 5, acetate buffer); Gal-Nab1 and Gal-Nab2 as analytes, 1.5 to 400 nM, 40 μL/min, 400 s, albumin 0.1 mg/mL and tween 0.05%; dissociation 500 s; the paper says the KD reflects avidity rather than affinity (apparent)

Chain of human recombinant galectin-9, medium isoform (gal-9M) (human) (O00182 other isoform, or with tags, fused parts or gaps): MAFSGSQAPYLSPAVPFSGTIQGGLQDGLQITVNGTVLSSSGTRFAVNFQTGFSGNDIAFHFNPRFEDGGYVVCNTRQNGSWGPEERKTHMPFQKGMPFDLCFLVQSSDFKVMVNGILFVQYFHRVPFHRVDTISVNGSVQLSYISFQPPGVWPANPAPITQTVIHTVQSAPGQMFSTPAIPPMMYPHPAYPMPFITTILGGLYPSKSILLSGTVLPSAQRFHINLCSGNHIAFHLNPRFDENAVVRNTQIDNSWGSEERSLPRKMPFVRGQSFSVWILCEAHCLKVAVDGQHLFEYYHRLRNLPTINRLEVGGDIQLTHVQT

- Kd: 4.34 nM
- koff: 0.000115 s⁻¹
- kon: 26500 M⁻¹ s⁻¹
- t1/2: 2.07 h
B1: Gal-Nab1 (antibody, V domains shown)
VH: KVQLQQSGAELVKPGASVKLSCKASGYTFTDYTIHWVKQRSGQGLEWIGWFYPGSHSIKYNEQFKDRATLTADKSSSTVYMELSRLTSEDSAVYFCTRHGGYDGFDYWGQGTTLTVSS
VL: DIVMSQSPSSLAVSVGEKITMSCKSSQSLFYSTNQKNYLAWYQQKPGQSPKLLIYWASTRESGVPDRFTGSGSGTDFTLTISSVKAEDLAVYYCQQYYYFPYTFGGGTKLEIK
